Values of other authors as cited in patent US10190113B2, “Methods and compositions for segregating target nucleic acid from mixed nucleic acid samples” (FLIR DETECTION, INC., priority 2011, dated 2019).

B1: BamHI T114I: BamHI restriction enzyme with mutation T114I (protein, UniProt P23940 1-213, looked up, variant T114I)
Type II restriction enzyme …: MEVEKEFITDEAKELLSKDKLIQQAYNEVKTSICSPIWPATSKTFTINNTEKNCNGVVPIKELCYTLLEDTYNWYREKPLDILKLEKKKGGPIDVYKEFIENSELKRVGMEFEIGNISSAHRSMNKLLLGLKHGEIDLAIILMPIKQLAYYLTDRVTNFEELEPYFELTEGQPFIFIGFNAEAYNSNVPLIPKGSDGMSKRSIKKWKDKVENK
B2: BamHI G130R: BamHI restriction enzyme with mutation G130R (protein, UniProt P23940 1-213, looked up, variant G130R)
Type II restriction enzyme …: MEVEKEFITDEAKELLSKDKLIQQAYNEVKTSICSPIWPATSKTFTINNTEKNCNGVVPIKELCYTLLEDTYNWYREKPLDILKLEKKKGGPIDVYKEFIENSELKRVGMEFETGNISSAHRSMNKLLLRLKHGEIDLAIILMPIKQLAYYLTDRVTNFEELEPYFELTEGQPFIFIGFNAEAYNSNVPLIPKGSDGMSKRSIKKWKDKVENK
B3: BamHI T157I: BamHI restriction enzyme with mutation T157I (protein, UniProt P23940 1-213, looked up, variant T157I)
Type II restriction enzyme …: MEVEKEFITDEAKELLSKDKLIQQAYNEVKTSICSPIWPATSKTFTINNTEKNCNGVVPIKELCYTLLEDTYNWYREKPLDILKLEKKKGGPIDVYKEFIENSELKRVGMEFETGNISSAHRSMNKLLLGLKHGEIDLAIILMPIKQLAYYLTDRVINFEELEPYFELTEGQPFIFIGFNAEAYNSNVPLIPKGSDGMSKRSIKKWKDKVENK
B4: BamHI D94N: BamHI restriction enzyme with mutation D94N (protein, UniProt P23940 1-213, looked up, variant D94N)
Type II restriction enzyme …: MEVEKEFITDEAKELLSKDKLIQQAYNEVKTSICSPIWPATSKTFTINNTEKNCNGVVPIKELCYTLLEDTYNWYREKPLDILKLEKKKGGPINVYKEFIENSELKRVGMEFETGNISSAHRSMNKLLLGLKHGEIDLAIILMPIKQLAYYLTDRVTNFEELEPYFELTEGQPFIFIGFNAEAYNSNVPLIPKGSDGMSKRSIKKWKDKVENK
B5: BamHI E135K: BamHI restriction enzyme with mutation E135K (protein, UniProt P23940 1-213, looked up, variant E135K)
Type II restriction enzyme …: MEVEKEFITDEAKELLSKDKLIQQAYNEVKTSICSPIWPATSKTFTINNTEKNCNGVVPIKELCYTLLEDTYNWYREKPLDILKLEKKKGGPIDVYKEFIENSELKRVGMEFETGNISSAHRSMNKLLLGLKHGKIDLAIILMPIKQLAYYLTDRVTNFEELEPYFELTEGQPFIFIGFNAEAYNSNVPLIPKGSDGMSKRSIKKWKDKVENK
B6: BamHI G194D: BamHI restriction enzyme with mutation G194D (protein, UniProt P23940 1-213, looked up, variant G194D)
Type II restriction enzyme …: MEVEKEFITDEAKELLSKDKLIQQAYNEVKTSICSPIWPATSKTFTINNTEKNCNGVVPIKELCYTLLEDTYNWYREKPLDILKLEKKKGGPIDVYKEFIENSELKRVGMEFETGNISSAHRSMNKLLLGLKHGEIDLAIILMPIKQLAYYLTDRVTNFEELEPYFELTEGQPFIFIGFNAEAYNSNVPLIPKDSDGMSKRSIKKWKDKVENK
B7: BsoBI I95M: BsoBI restriction enzyme with mutation I95M (protein, UniProt P70985 2-323, looked up, variant I95M)
Type II restriction enzyme …: NTQKPFENHLKSVDDLKTTYEEYRAGFIAFALEKNKRSTPYIERARALKVAASVAKTPKDLLYLEDIQDALLYASGISDKAKKFLTEDDKKESMNNLIENFLEPAGEEFIDELIFRYLLFQGDSLGGTMRNIAGALAQQKLTRAIISALDIANIPYKWLDSRDKKYTNWMDKPEDDYELETFAKGISWTINGKHRTLMYNITVPLVKKNVDICLFNCEPEIYTPQKVHQQPEKYLLLGELKGGIDPAGADEHWKTANTALTRIRNKFSEKGLSPKTIFIGAAIEHSMAEEIWDQLQSGSLTNSANLTKTEQVGSLCRWIINI
B8: BsoBI D212N: BsoBI restriction enzyme with mutation D212N (protein, UniProt P70985 2-323, looked up, variant D212N)
Type II restriction enzyme …: NTQKPFENHLKSVDDLKTTYEEYRAGFIAFALEKNKRSTPYIERARALKVAASVAKTPKDLLYLEDIQDALLYASGISDKAKKFLTEDDKKESINNLIENFLEPAGEEFIDELIFRYLLFQGDSLGGTMRNIAGALAQQKLTRAIISALDIANIPYKWLDSRDKKYTNWMDKPEDDYELETFAKGISWTINGKHRTLMYNITVPLVKKNVNICLFNCEPEIYTPQKVHQQPEKYLLLGELKGGIDPAGADEHWKTANTALTRIRNKFSEKGLSPKTIFIGAAIEHSMAEEIWDQLQSGSLTNSANLTKTEQVGSLCRWIINI
B9: BsoBI D124Y: BsoBI restriction enzyme with mutation D124Y (protein, UniProt P70985 2-323, looked up, variant D124Y)
Type II restriction enzyme …: NTQKPFENHLKSVDDLKTTYEEYRAGFIAFALEKNKRSTPYIERARALKVAASVAKTPKDLLYLEDIQDALLYASGISDKAKKFLTEDDKKESINNLIENFLEPAGEEFIDELIFRYLLFQGYSLGGTMRNIAGALAQQKLTRAIISALDIANIPYKWLDSRDKKYTNWMDKPEDDYELETFAKGISWTINGKHRTLMYNITVPLVKKNVDICLFNCEPEIYTPQKVHQQPEKYLLLGELKGGIDPAGADEHWKTANTALTRIRNKFSEKGLSPKTIFIGAAIEHSMAEEIWDQLQSGSLTNSANLTKTEQVGSLCRWIINI
B10: BsoBI G123R: BsoBI restriction enzyme with mutation G123R (protein, UniProt P70985 2-323, looked up, variant G123R)
Type II restriction enzyme …: NTQKPFENHLKSVDDLKTTYEEYRAGFIAFALEKNKRSTPYIERARALKVAASVAKTPKDLLYLEDIQDALLYASGISDKAKKFLTEDDKKESINNLIENFLEPAGEEFIDELIFRYLLFQRDSLGGTMRNIAGALAQQKLTRAIISALDIANIPYKWLDSRDKKYTNWMDKPEDDYELETFAKGISWTINGKHRTLMYNITVPLVKKNVDICLFNCEPEIYTPQKVHQQPEKYLLLGELKGGIDPAGADEHWKTANTALTRIRNKFSEKGLSPKTIFIGAAIEHSMAEEIWDQLQSGSLTNSANLTKTEQVGSLCRWIINI
B11: BsoBI K209R: BsoBI restriction enzyme with mutation K209R (protein, UniProt P70985 2-323, looked up, variant K209R)
Type II restriction enzyme …: NTQKPFENHLKSVDDLKTTYEEYRAGFIAFALEKNKRSTPYIERARALKVAASVAKTPKDLLYLEDIQDALLYASGISDKAKKFLTEDDKKESINNLIENFLEPAGEEFIDELIFRYLLFQGDSLGGTMRNIAGALAQQKLTRAIISALDIANIPYKWLDSRDKKYTNWMDKPEDDYELETFAKGISWTINGKHRTLMYNITVPLVKRNVDICLFNCEPEIYTPQKVHQQPEKYLLLGELKGGIDPAGADEHWKTANTALTRIRNKFSEKGLSPKTIFIGAAIEHSMAEEIWDQLQSGSLTNSANLTKTEQVGSLCRWIINI
B12: EcoRV D74N: EcoRV restriction enzyme with mutation D74N (protein, UniProt P04390 2-245, looked up, variant D74N)
Type II restriction enzyme …: SLRSDLINALYDENQKYDVCGIISAEGKIYPLGSDTKVLSTIFELFSRPIINKIAEKHGYIVEEPKQQNHYPNFTLYKPSEPNKKIAIDIKTTYTNKENEKIKFTLGGYTSFIRNNTKNIVYPFDQYIAHWIIGYVYTRVATRKSSLKTYNINELNEIPKPYKGVKVFLQDKWVIAGDLAGSGNTTNIGSIHAHYKDFVEGKGIFDSEDEFLDYWRNYERTSQLRNDKYNNISEYRNWIYRGRK
B13: EcoRV D90A: EcoRV restriction enzyme with mutation D90A (protein, UniProt P04390 2-245, looked up, variant D90A)
Type II restriction enzyme …: SLRSDLINALYDENQKYDVCGIISAEGKIYPLGSDTKVLSTIFELFSRPIINKIAEKHGYIVEEPKQQNHYPDFTLYKPSEPNKKIAIAIKTTYTNKENEKIKFTLGGYTSFIRNNTKNIVYPFDQYIAHWIIGYVYTRVATRKSSLKTYNINELNEIPKPYKGVKVFLQDKWVIAGDLAGSGNTTNIGSIHAHYKDFVEGKGIFDSEDEFLDYWRNYERTSQLRNDKYNNISEYRNWIYRGRK
B14: EcoRV K92E: EcoRV restriction enzyme with mutation K92E (protein, UniProt P04390 2-245, looked up, variant K92E)
Type II restriction enzyme …: SLRSDLINALYDENQKYDVCGIISAEGKIYPLGSDTKVLSTIFELFSRPIINKIAEKHGYIVEEPKQQNHYPDFTLYKPSEPNKKIAIDIETTYTNKENEKIKFTLGGYTSFIRNNTKNIVYPFDQYIAHWIIGYVYTRVATRKSSLKTYNINELNEIPKPYKGVKVFLQDKWVIAGDLAGSGNTTNIGSIHAHYKDFVEGKGIFDSEDEFLDYWRNYERTSQLRNDKYNNISEYRNWIYRGRK
B15: EcoRV K92Q: EcoRV restriction enzyme with mutation K92Q (protein, UniProt P04390 2-245, looked up, variant K92Q)
Type II restriction enzyme …: SLRSDLINALYDENQKYDVCGIISAEGKIYPLGSDTKVLSTIFELFSRPIINKIAEKHGYIVEEPKQQNHYPDFTLYKPSEPNKKIAIDIQTTYTNKENEKIKFTLGGYTSFIRNNTKNIVYPFDQYIAHWIIGYVYTRVATRKSSLKTYNINELNEIPKPYKGVKVFLQDKWVIAGDLAGSGNTTNIGSIHAHYKDFVEGKGIFDSEDEFLDYWRNYERTSQLRNDKYNNISEYRNWIYRGRK
B16: EcoRV K92A: EcoRV restriction enzyme with mutation K92A (protein, UniProt P04390 2-245, looked up, variant K92A)
Type II restriction enzyme …: SLRSDLINALYDENQKYDVCGIISAEGKIYPLGSDTKVLSTIFELFSRPIINKIAEKHGYIVEEPKQQNHYPDFTLYKPSEPNKKIAIDIATTYTNKENEKIKFTLGGYTSFIRNNTKNIVYPFDQYIAHWIIGYVYTRVATRKSSLKTYNINELNEIPKPYKGVKVFLQDKWVIAGDLAGSGNTTNIGSIHAHYKDFVEGKGIFDSEDEFLDYWRNYERTSQLRNDKYNNISEYRNWIYRGRK
B17: EcoRV D90T: EcoRV restriction enzyme with mutation D90T (protein, UniProt P04390 2-245, looked up, variant D90T)
Type II restriction enzyme …: SLRSDLINALYDENQKYDVCGIISAEGKIYPLGSDTKVLSTIFELFSRPIINKIAEKHGYIVEEPKQQNHYPDFTLYKPSEPNKKIAITIKTTYTNKENEKIKFTLGGYTSFIRNNTKNIVYPFDQYIAHWIIGYVYTRVATRKSSLKTYNINELNEIPKPYKGVKVFLQDKWVIAGDLAGSGNTTNIGSIHAHYKDFVEGKGIFDSEDEFLDYWRNYERTSQLRNDKYNNISEYRNWIYRGRK

Tested on: nucleic acid recognition or cleavage site
Details: mutant restriction enzyme relative to wild type; cited from earlier work
For B1, the “% of WT cleavage activity” value is listed as 1%. For B2, the “% of WT cleavage activity” value is listed as 0.1%. In the case of B3, the “% of WT cleavage activity” value is listed as 1%. In the case of B4, the “% of WT cleavage activity” value is given as less than 0.1%. In the case of B5, the “% of WT cleavage activity” value is listed as 1%. In the case of B6, the “% of WT cleavage activity” value is given as 1%. In the case of B7, the “% of WT cleavage activity” value is given as less than 0.1%. In the case of B8, the “% of WT cleavage activity” value is listed as less than 0.1%. In the case of B9, the “% of WT cleavage activity” value is given as less than 0.1%. For B10, the “% of WT cleavage activity” value is given as less than 0.1%. For B11, the “% of WT cleavage activity” value is listed as less than 0.1%. For B12, the “% of WT cleavage activity” value is listed as 1.5%. For B13, the “% of WT cleavage activity” value is listed as 0%. In the case of B14, the “% of WT cleavage activity” value is listed as less than 0.1%. For B15, the “% of WT cleavage activity” value is listed as 0%. For B16, the “% of WT cleavage activity” value is given as less than 0.1%. In the case of B17, the “% of WT cleavage activity” value is given as 0%.
